For the test, the target named is T1, full-length His-tagged pUL89 (wild-type) (human cytomegalovirus, AD169 genotype, UniProt P16732 1-674).
T1 construct: mature; It was expressed from pCI-neo His-pUL89 in HEK293 cells and purified on Ni resin; also called His-pUL89; 6xHis-pUL89; not shown: 6xHis tag
T1 sequence: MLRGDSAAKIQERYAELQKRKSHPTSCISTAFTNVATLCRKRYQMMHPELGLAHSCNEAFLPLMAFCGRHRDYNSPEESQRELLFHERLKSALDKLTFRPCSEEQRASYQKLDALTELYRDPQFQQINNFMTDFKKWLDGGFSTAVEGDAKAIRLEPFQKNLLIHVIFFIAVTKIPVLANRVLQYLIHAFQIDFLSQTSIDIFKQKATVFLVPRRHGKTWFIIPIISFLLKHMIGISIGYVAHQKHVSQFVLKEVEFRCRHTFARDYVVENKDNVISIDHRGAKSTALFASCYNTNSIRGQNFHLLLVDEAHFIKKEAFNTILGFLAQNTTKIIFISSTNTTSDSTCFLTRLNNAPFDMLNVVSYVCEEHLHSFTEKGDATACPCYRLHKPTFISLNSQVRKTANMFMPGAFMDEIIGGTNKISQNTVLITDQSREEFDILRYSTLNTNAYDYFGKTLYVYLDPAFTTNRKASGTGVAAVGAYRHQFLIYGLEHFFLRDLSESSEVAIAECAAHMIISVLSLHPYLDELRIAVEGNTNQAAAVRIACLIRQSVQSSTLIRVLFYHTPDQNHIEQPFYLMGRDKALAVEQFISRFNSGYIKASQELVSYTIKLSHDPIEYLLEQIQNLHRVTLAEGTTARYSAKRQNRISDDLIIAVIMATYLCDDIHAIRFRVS
Briefly: Alpha proximity assay, purified proteins; negative controls are each protein alone.

Here are results for one molecule from patent US20200207873A1 (INSERM INSTITUT NATIONAL DE LA SANT ET DE LA RECHERCHE M …, published 2020).

B1: full-length amino-terminal 3xHA-tagged pUL56 (wild-type) (other)
chain: MEMNLLQKLCVVCSKCNEYAMELECLKYCDPNVLLAESTPFKRNAAAIVYLYRKIYPEVVAQNRTQSSLLTLYLEMLLKALHEDTALLDRALMAYSRQPDRAAFYRTVLRLDRCDRHHTVELQFTDNVRFSVSLATLNDIERFLCKMNYVYGILAPEAGLEVCAQLLELLRRLCGISPVARQEVYVEGTTCAQCYEELTIIPNQGRSLNKRLQGLLCNHIAVHRPSSQSDVNIQTVEQDLLDLTTRIPHLAGVLSALKSLFSSSSAYHSYIQEAEEALREYNLFTDIPERIYSLSDFTYWSRTSEVIVKRVGITIQQLNVYHQLCRALMNGISRHLYGEDVEDIFVLGEKALDGEERMFVGSVFAAPNRIIDLITSLSIQAFEDNPVFNKLHESNEMYTKIKHILEEIRRPLPDGTGGDGPEGEAIHLRGREAMSGTGTTLMTASNSSNSSTHSQRNNGGGGRARGGGKKAVGGGANGQDGDGSENGLRVRNCDEHEALDLVDARSRIHNVTREVNVRKRAYLQKVSEVGYGKVIRCIKTQERLTSKLIDVNLVGPLCLDFISKLMNGFLYRSQYHQDQDVVDVGDQFTYDEHLYVVNNLIHKSLPVESLPLLGQQIYELCNGPLFTHCTDRYPLSHNVDMAYACDNAGVLPHVKDDLVKCAEGTVYPSEWMVVKYMGFFNFSDCQDLNVLQKEMWMHVRELVLSVALYNETFGKQLSIACLRDELHPDRDVILTYNKEWPLLLRHEGNLYKSKDLYLLLYRHLSRPDESGDVPTAPVAKPSTLTAAAAVSGAFREPDRPWLPSPYPSSSTAGVSRRVRATRKRPRRASSLLDLARDEHGIQDLVPGSLR
notes: also called 3xHA-pUL56; HA-pUL56; not shown: amino-terminal 3xHA tag
Consider B1, for which the “fold of Alpha signal over negative controls” value is > 2 fold.
